Experimental data as given in paper PMC6101370.
Where a chain is given by its changes, count along the chain named. Numbers in names are those of the source. Blank lines part the entries; values can stand above or below the binder they belong to.

Target: T1, histidine kinase EnvZ from Escherichia coli (Escherichia coli) (UniProt P0AEJ4)
T1 sequence (P0AEJ4 whole entry, looked up): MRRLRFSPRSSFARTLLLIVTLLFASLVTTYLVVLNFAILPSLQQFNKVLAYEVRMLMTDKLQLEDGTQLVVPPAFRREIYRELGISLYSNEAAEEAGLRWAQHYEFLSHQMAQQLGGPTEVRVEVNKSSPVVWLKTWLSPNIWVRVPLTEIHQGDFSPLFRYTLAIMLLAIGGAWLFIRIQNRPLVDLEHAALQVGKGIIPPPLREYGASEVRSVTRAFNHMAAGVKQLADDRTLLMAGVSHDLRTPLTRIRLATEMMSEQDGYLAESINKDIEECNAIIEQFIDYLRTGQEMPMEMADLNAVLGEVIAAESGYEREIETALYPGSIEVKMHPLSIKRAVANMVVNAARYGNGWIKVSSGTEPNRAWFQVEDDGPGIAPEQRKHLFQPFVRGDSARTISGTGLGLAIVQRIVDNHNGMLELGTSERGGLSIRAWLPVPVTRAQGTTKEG

in vitro phosphotransfer rate from EnvZ, ratio v (mutant) / v (w.t.): 1
B1: Spo0F M55L (natural protein)
chain: MMNEKILIVDDQYGIRILLNEVFNKEGYQTFQAANGLQALDIVTKERPDLVLLDLKIPGMDGIEILKRMKVIDENIRVIIMTAYGELDMIQESKELGALTHFAKPFDIDEIRDAVKKYLPLKSN

in vitro phosphotransfer rate from EnvZ, ratio v (mutant) / v (w.t.): 1
B2: Spo0F I108L (natural protein)
chain: B1 chain with L55M, I108L
